# Test results published in the DeepSol protein solubility set.
# Assay: soluble on expression in E. coli; label from the status in PepcDB or PDB records
row,Sequence,soluble on expression in E. coli
1,MSLNEETRKKKKRPSLTTLYEGTMKEITSNENRYIEFLNFASRVHKYSFDEQLLLYAQKQDVHMVATFDIWKKLGRFVKRGSTAALLFDYTTQQRKYVFDISETGGEPLQVFDWQLLDNDKNDLLRYWNTYEKQSGTLVNWEDGIHAKIASYQKPIGDQIHPFFVKDIEVVAAYIIYQRTNTLIPEDLLLDVQSVLQIGKRDNTLLEIQHFANLTAKEFLQDVERILNNELKKERVLYHDRIKFEDELSRREWQPASRDREGHHHHHH,not soluble
2,MPCRLRKITVYETKSRFYIIGCDSTGSRYNVLKIDRIDPKALITGEPEYDYTREEILELLATISDGSSVVYRSSSKKGTKSGLIERATNAFGILGCVRFVEGYYLIIITRAHAVATLGYHPVYKIVEVAMIPIAMDGVSTSSEEQKYVKLFQSVDLSTDFYFSYSYDMSRTFQENSLRSDWNNHGQRRLEADERFVWNSFLLEPLRKNLISERWFVEIVHGYVRQEYIFLPIGRISLTIIGRRSTKYAGTRFLKRGANPTGNVANYVETEQIVWDMASSGNVADGRFSSFVQMRGSVPMRWSQDPSTRGVVGKPLILIDNHEPHAQTAASHFRDVRNKYGNPIVIMNLIKRNEKRRHEGVLHTQFLKNIEYLNQFLPNEEKLCYISFDVARCNKAANSMPSINVLNVMEDLSMKSILKNGWFQSFPLSEALKIRPREAFATLDAHHSKDGRFMIQHGICRTNCVDCLDRTNVAQFVIAKVALGCQLCAMGILDEPNLTLQSEVCRLLEDMFDEHGDTMALQYAGSQLVHSIKTYKKTAAFQERRRDVFQTLSRYYSNTFNDWDKQMAINLFLGVFRPRITTMKNLWDLTSDYNLHFPYSLKINTDYCAWTLSEKELEDLVFLDYDESENSDGYVEIRSIDVDGRRGSEGSEYRTLLFSSHEDFRDYHRTYEFTSLDDRIGRLFSIENRAIQVDGINEEPTTHAQFLKLWKTTETKEKDQKKPNKKDKEEKESDDEDDDEEISTQWSDVVEAQQEWYDLVNAPGNVTTTLQKSPTKRESTPPRNTSRAKRSLLSTGLQFAKDIYHLDHLKTQPEERRYYEKYAITAFKCNVRDWEKVKPTLLSEFKITSEVEPRRPTFFTTDDCYRTESPEVSGNSARFYIKSSHPLTTECSAQDYGFFSKYMQAT,not soluble
3,MGSDKIHHHHHHITPSISSKADNLIPRTNLEISNGQVFNESQIRLRGWGLNASGIKAIDIYVDGTWKKTLVKGDGFGLSRPDVKQAFPEYPDADYSGYDYYMYLPDGNHTLRVWAIGNDNSKVYSEANITVDTSNSKGTQLVNYARKFIGVPYVWGGDTPNGFDCSGLVMYCYAHFGVNLPHYTGDQVKYGTVVTDLQPGDLLFFGSTSDPYHVAIYSGNGYMIEAPKTGENVHETPVRSYSIAKRIF,not soluble
4,MGSDKIHHHHHHMAHHHGMRFPTPLIPATLIKRYKRFLADCRLEDGREITAHCANPGSMMGLAEPGMRVWLEPNDDPKKKLKYGWRLVEHTNGHFTGVDTSVPNRALKAALEAHEIAEFAAYSEVQAEVKYGQNSRIDFLLTDAKLPRCYVEVKSVTLSRQPGLAEFPDSVTARGTKHLRELAAMAEAGHRAVMLYLVQRTDCDRFALAADIDPAYAAEFETAHAKGVERLVIGTTITPEGVKIGDILPS,not soluble
5,MIGYPIVFRCCECTVEEQTMEHLESHIWSRHLQAFPFKCAYCDFPALSAISLMDHFAQNHSDVAIVEFKRNLEDEKRFRKMVADSIAIEIDETSQQDSSTQMTVLQPMMQQGTAQMILLPPEGSQYDEIVDHRGPDEDDFGVLDDDENIEELIDDDDDDDYIDELGNPVFIGAHDDSDYILEDDLSPQGPIRSSNNYHLKYIRTRRMDKLIDNVVVNATQRDSPEQEDCSTSGVAFADGQTNSGKMGRFSCDRCSRTFKYQSKLDEHRRTHLGVKPFQCHYCTRQFSQRGALKTHMRLHTGERPFVCQWECGKQFASSSAKSHHEKTHSGERPYICNVCGKSFTKNSHVIRHLKNIHNRELAQQDAMLRGDDVQSTDESLNIGSARSQMSDIEPRGKEIGVVHDIVEQIHEERKDFMRL,not soluble
6,MSAPKRPKFSVGDIVVNTLYGTVGTITDIQQIDGTFLYEINHGHSLFAEQALILLSEFAGDLWIAEEIEIELPFFLGEIVRVRDYGGHLFKIVGVRTEIYRYYGEGWEETIYELKRLTDGWEIEVHLEDIIPLADGEETSVTLVQDIVIAAPVKASLLLPPADSGEKGPSVDELLDMYNDYKALYEWFGDEQYQRMMETVVKRLRTISDHQDRN,not soluble
7,MGSSHHHHHHGGTGENLYFQGGSGMEKAIRDRVEKWKKEHTIDGKDATNEHAYESLNELILDGKKLTSIKNEEKELLKNFKNLERLCLNQTGIQTLENIPSIATLNVLELTDNHLSSVEVLKYIVQNFPNIKTLEIGGNHFKNINDFETLKELKNLVRLGVQFNPFADNPNYRKELFEFLPNVKIIDCYNKEGMEVLSSDEEEEEEYEEDNTLKNFYEADFKDEDDEDEEFVPNDNEDDDEDDELDDDLEDEDMEDLDKEDLDKEDYDIDTKETEGVNKDEKSNKRKQDALDNTNDMDLKKTKLE,soluble
8,GMQPETSAQYQHRFSQAIRGGEAADGLPQDRLNVYIRLIRNNIHSFIDRCYTETRQYFDSKEWSRLKEGFVRDARAQTPYFQEIPGEFLQYCQSLPLSDGILALMDFEYTQLLAEVAQIPDIPDIHYSNDSKYTPSPAAFIRQYRYDVTHDLQEAETALLIWRNAEDDVMYQTLDGFDMMLLEIMGSSALSFDTLAQTLVEFMPKADNWKNILLGKWSGWIEQRIIIPSLSAISENMEGNSPSQNHLSA,soluble
9,MGSDKIHHHHHHMDQDDASPISSGVEGLDYVLRGGYAKYRSHLVEGRPGSGKTTLGLQFLIKGAAAGEKCLYITLSESRRELQSVAVRHGFSLDGIEILELVPPELSLDPSQLQTLVHSSDLELGETVQAALAEIERMKPDRVVFDSLSEIRLLSQGSLRYRRQVLALKSFFLLNNATVLLLDDLTAEHDDLNLHSISHGVIRMEQLSPIYGGERRRLRIIKMRGVQIRGGFHDFVIRPGGVMVFPRLVASEHEMAEHGTPATGNGSVDTLVGGGLDRGTSTLLMGPSGVGKSTIACSYCHSALKRGEHVLVLLFDETKRIFLARASGLGMDLGPFADNGNLLLEQIDPAELSPGELSSRIQSAVERSSARIVVIDSLTGYLNAMSEEQHLVLQMHEILTYLNQKGVVTILLLANHGLIGQMSAPVDMTYLCDSVMLLRFFESGGRLRRAISVVKKRVGPHEDTIREFKISATGLAVGEPLEEFRGILTGVPTYEGKQGNLLQDKAS,not soluble
10,MSLKILFVAAEGAPFSKTGGLGDVIGALPKSLVKAGHEVAVILPYYDMVEAKFGNQIEDVLHFEVSVGWRRQYCGIKKTVLNGVTFYFIDNQYYFFRGHVYGDFDDGERFAFFQLAAIEAMERIDFIPDLLHVHDYHTAMIPFLLKEKYRWIQAYEDIETVLTIHNLEFQGQFSEGMLGDLFGVGFERYADGTLRWNNCLNWMKAGILYANRVSTVSPSYAHEIMTSQFGCNLDHILKMESGKVSGIVNGIDADLYNPQTDALLDYHFNQEDLSGKAKNKAKLQERVGLPVRADVPLVGIVSRLTRQKGFDVVVESLHHILQEDVQIVLLGTGDPAFEGAFSWFAQIYPDKLSTNITFDVKLAQEIYAACDLFLMPSRFEPCGLSQMMAMRYGTLPLVHEVGGLRDTVRAFNPIEGSGTGFSFDNLSPYWLNWTFQTALDLYRNHPDIWRNLQKQAMESDFSWDTACKSYLDLYHSLVNEGHHHHHH,soluble
11,MGSDKIHHHHHHMSDQANQGDLEIRPSPLLKVINDLHSKYKSLKEGIVANYIPELAKVNPDLFSISIVTVDGQVYQVGDYQQLFTIQSISKVFAYGLALEDHGRDYVLTRVGVEPTGEAFNAIILDEQSKRPYNPMVNAGAIATTSLIKGAGATERLNRVLEMFRRYIGHDVFVDISVFTSERSTGHRNRAMAHLMLNFGMIDRNIEEALDLYFQQCAVMVNCHDLAVMAATLANRGVNPITGEQAVNSRYIKDILSVMYTCGMYNFAGEWAYKVGIPAKSGVCGGIMAVVPNLMGIAVFSPPLDIRGNSVRGVKVCEELSQQLGLHLFECMKVGNGEWGVGNCEC,not soluble
